Experimental findings from PMC2563146 are described below.

The target of this assay is Gal4-ARNT-ΔTAD (PL283), Gal DNA-binding domain fusion of ARNT deleted for the transactivation domain. In words: two-hybrid.

As for “full-length AHRdbd, 'fish' of the mammalian two-hybrid (pTgTAHRdbd, PL1548) (from UniProt P30561 10-848) (natural protein)”, the fold increase of luciferase activity with 1nM TCDD was 10 fold. The same measure for “wild-type AHR, 'fish' of the mammalian two-hybrid (pTgTAHRs, PL1550) (from UniProt P30561 10-848) (natural protein)”: 3 fold.
